Laboratory results from paper PMC9482650, “Quantitative fragmentomics allow affinity mapping of interactomes” (Nature Communications, 2022).

T1: APBA2_2, Q99767
T1 sequence (Q99767 654-744, limits assumed, looked up): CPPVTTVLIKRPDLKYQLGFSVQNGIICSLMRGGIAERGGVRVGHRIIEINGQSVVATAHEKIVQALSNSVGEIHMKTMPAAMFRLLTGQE

T2: APBA3_1, O96018
T2 sequence (O96018 389-490, limits assumed, looked up): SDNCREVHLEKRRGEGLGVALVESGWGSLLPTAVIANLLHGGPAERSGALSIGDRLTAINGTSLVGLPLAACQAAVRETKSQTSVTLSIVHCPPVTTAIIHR

T3: CARD11, Q9BXL7
T3 sequence (Q9BXL7 662-765, limits assumed, looked up): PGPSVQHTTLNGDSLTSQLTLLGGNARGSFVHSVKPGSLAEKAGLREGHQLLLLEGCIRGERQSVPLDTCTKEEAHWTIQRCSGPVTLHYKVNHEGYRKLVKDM

T4: DLG3_1, Q92796
T4 sequence (Q92796 125-227, limits assumed, looked up): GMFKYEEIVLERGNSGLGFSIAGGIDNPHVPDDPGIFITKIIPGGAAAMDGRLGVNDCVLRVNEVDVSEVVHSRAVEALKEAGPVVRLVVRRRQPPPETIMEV

T5: DVL3, Q92997
T5 sequence (Q92997 244-331, limits assumed, looked up): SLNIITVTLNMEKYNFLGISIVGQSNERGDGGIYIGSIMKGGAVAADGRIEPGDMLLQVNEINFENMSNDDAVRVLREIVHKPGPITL

T6: GRIP1_5, Q9Y3R0
T6 sequence (Q9Y3R0 568-668, limits assumed, looked up): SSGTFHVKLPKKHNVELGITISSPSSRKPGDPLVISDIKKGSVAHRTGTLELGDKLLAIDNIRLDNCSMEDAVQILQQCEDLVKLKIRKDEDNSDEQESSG

T7: PDZD7_3, Q9H5P4
T7 sequence (Q9H5P4 857-944, limits assumed, looked up): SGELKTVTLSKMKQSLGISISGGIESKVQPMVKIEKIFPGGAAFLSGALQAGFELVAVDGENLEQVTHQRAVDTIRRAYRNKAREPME

T8: SHANK1, Q9Y566
T8 sequence (Q9Y566 658-767, limits assumed, looked up): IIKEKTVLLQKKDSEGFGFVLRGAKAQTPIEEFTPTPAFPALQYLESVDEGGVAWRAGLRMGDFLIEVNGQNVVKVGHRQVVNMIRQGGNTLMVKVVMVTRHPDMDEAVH

T9: SIPA1L2, Q9P2F8
T9 sequence (Q9P2F8 945-1036, limits assumed, looked up): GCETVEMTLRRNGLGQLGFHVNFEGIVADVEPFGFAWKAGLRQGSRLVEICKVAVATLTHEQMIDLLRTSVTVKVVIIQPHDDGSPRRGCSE

T10: SNTA1, Q13424
T10 sequence (Q13424 82-180, limits assumed, looked up): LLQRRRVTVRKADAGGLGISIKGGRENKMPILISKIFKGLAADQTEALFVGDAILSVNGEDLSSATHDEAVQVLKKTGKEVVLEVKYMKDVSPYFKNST

T11: SNTB1, Q13884
T11 sequence (Q13884 107-205, limits assumed, looked up): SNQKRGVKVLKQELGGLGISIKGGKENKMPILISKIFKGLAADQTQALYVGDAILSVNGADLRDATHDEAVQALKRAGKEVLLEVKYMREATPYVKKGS

T12: SYNJ2BP, P57105
T12 sequence (P57105 8-110, limits assumed, looked up): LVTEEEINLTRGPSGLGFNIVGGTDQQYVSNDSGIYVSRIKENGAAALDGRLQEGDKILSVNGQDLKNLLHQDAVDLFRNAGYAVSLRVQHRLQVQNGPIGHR

T13: TJP3_3, O95049
T13 sequence (O95049 375-456, limits assumed, looked up): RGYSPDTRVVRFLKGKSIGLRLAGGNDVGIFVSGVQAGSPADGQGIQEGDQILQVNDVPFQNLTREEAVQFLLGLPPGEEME

B1: GRIK2, Q13002 (peptide)
chain: RRLPGKETMA
B2: DGKH, Q86XP1 (peptide)
chain: LGRSTPQSEV
B3: GRIN2C, Q14957 (peptide)
chain: RRISSLESEV
B4: DCAF7, P61962 (peptide)
chain: YNNCLEILRV

Biological target: T1, APBA2_2, Q99767
Assay: holdup assay
Parameters: key: below the threshold = too weak to quantify, mostly under pKd 3.1 to 4
Details: plain residues with an end cap or a label only (N-terminal biotin on a linker: ado-ado)

| pKd | Binder |
| --- | --- |
| below the threshold | B1 |
| below the threshold | B2 |
| below the threshold | B3 |
| below the threshold | B4 |

Biological target: T2, APBA3_1, O96018
Assay: holdup assay
Parameters: key: below the threshold = too weak to quantify, mostly under pKd 3.1 to 4
Details: plain residues with an end cap or a label only (N-terminal biotin on a linker: ado-ado)

| pKd | Binder |
| --- | --- |
| below the threshold | B1 |
| below the threshold | B2 |
| below the threshold | B3 |
| below the threshold | B4 |

Biological target: T3, CARD11, Q9BXL7
Assay: holdup assay
Parameters: key: below the threshold = too weak to quantify, mostly under pKd 3.1 to 4
Details: plain residues with an end cap or a label only (N-terminal biotin on a linker: ado-ado)

| pKd | Binder |
| --- | --- |
| below the threshold | B1 |
| below the threshold | B2 |
| below the threshold | B3 |
| below the threshold | B4 |

Biological target: DLG1_1, Q12959
Assay: holdup assay
Parameters: key: below the threshold = too weak to quantify, mostly under pKd 3.1 to 4
Details: plain residues with an end cap or a label only (N-terminal biotin on a linker: ado-ado)

| pKd | Binder |
| --- | --- |
| below the threshold | B1 |
| below the threshold | B2 |
| 4.86 | B3 |
| below the threshold | B4 |

Biological target: T4, DLG3_1, Q92796
Assay: holdup assay
Parameters: key: below the threshold = too weak to quantify, mostly under pKd 3.1 to 4
Details: plain residues with an end cap or a label only (N-terminal biotin on a linker: ado-ado)

| pKd | Binder |
| --- | --- |
| below the threshold | B1 |
| below the threshold | B2 |
| 4.37 | B3 |
| below the threshold | B4 |

Biological target: DLG5_1, Q8TDM6
Assay: holdup assay
Parameters: key: below the threshold = too weak to quantify, mostly under pKd 3.1 to 4
Details: plain residues with an end cap or a label only (N-terminal biotin on a linker: ado-ado)

Chain of DLG5_1, Q8TDM6 (Q8TDM6 617-713): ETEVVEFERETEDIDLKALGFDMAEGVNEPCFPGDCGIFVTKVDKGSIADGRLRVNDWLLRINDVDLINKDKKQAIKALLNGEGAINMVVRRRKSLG

| pKd | Binder |
| --- | --- |
| below the threshold | B1 |
| below the threshold | B2 |
| below the threshold | B3 |
| below the threshold | B4 |

Biological target: T5, DVL3, Q92997
Assay: holdup assay
Parameters: key: below the threshold = too weak to quantify, mostly under pKd 3.1 to 4
Details: plain residues with an end cap or a label only (N-terminal biotin on a linker: ado-ado)

| pKd | Binder |
| --- | --- |
| below the threshold | B1 |
| below the threshold | B2 |
| below the threshold | B3 |
| 3.55 | B4 |

Biological target: GRID2IP_2, A4D2P6
Assay: holdup assay
Parameters: key: below the threshold = too weak to quantify, mostly under pKd 3.1 to 4
Details: plain residues with an end cap or a label only (N-terminal biotin on a linker: ado-ado)

Chain of GRID2IP_2, A4D2P6 (A4D2P6 272-370): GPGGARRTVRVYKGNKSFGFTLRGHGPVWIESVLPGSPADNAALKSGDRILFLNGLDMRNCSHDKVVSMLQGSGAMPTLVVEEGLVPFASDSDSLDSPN

| pKd | Binder |
| --- | --- |
| below the threshold | B1 |
| 4.16 | B2 |
| 3.54 | B3 |
| below the threshold | B4 |

Biological target: T6, GRIP1_5, Q9Y3R0
Assay: holdup assay
Parameters: key: below the threshold = too weak to quantify, mostly under pKd 3.1 to 4
Details: plain residues with an end cap or a label only (N-terminal biotin on a linker: ado-ado)

| pKd | Binder |
| --- | --- |
| below the threshold | B1 |
| below the threshold | B2 |
| below the threshold | B3 |
| below the threshold | B4 |

Biological target: GRIP2_4, Q9C0E4
Assay: holdup assay
Parameters: key: below the threshold = too weak to quantify, mostly under pKd 3.1 to 4
Details: plain residues with an end cap or a label only (N-terminal biotin on a linker: ado-ado)

Chain of GRIP2_4, Q9C0E4 (Q9C0E4 446-548): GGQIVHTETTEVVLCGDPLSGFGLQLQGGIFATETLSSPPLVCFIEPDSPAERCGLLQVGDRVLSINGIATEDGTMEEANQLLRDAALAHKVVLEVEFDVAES

| pKd | Binder |
| --- | --- |
| below the threshold | B1 |
| below the threshold | B2 |
| below the threshold | B3 |
| below the threshold | B4 |

Biological target: HTRA1, Q92743
Assay: holdup assay
Parameters: key: below the threshold = too weak to quantify, mostly under pKd 3.1 to 4
Details: plain residues with an end cap or a label only (N-terminal biotin on a linker: ado-ado)

Chain of HTRA1, Q92743 (Q92743 360-477): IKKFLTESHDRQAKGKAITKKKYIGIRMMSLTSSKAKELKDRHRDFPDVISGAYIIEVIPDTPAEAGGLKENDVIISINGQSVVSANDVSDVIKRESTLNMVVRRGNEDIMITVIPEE

| pKd | Binder |
| --- | --- |
| below the threshold | B1 |
| below the threshold | B2 |
| 3.82 | B3 |
| 5.22 | B4 |

Biological target: Inadl_4, Q8NI35
Assay: holdup assay
Parameters: key: below the threshold = too weak to quantify, mostly under pKd 3.1 to 4
Details: plain residues with an end cap or a label only (N-terminal biotin on a linker: ado-ado)

Chain of Inadl_4, Q8NI35 (Q8NI35 547-651): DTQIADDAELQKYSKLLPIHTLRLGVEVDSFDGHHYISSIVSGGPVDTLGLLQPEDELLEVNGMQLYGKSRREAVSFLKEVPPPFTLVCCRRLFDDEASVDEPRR

| pKd | Binder |
| --- | --- |
| below the threshold | B1 |
| below the threshold | B2 |
| below the threshold | B3 |
| below the threshold | B4 |

Biological target: Inadl_6, Q8NI35
Assay: holdup assay
Parameters: key: below the threshold = too weak to quantify, mostly under pKd 3.1 to 4
Details: plain residues with an end cap or a label only (N-terminal biotin on a linker: ado-ado)

Chain of Inadl_6, Q8NI35 (Q8NI35 1058-1167): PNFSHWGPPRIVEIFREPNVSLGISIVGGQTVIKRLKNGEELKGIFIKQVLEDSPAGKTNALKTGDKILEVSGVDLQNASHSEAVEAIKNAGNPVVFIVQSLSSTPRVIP

| pKd | Binder |
| --- | --- |
| below the threshold | B1 |
| below the threshold | B2 |
| below the threshold | B3 |
| below the threshold | B4 |

Biological target: MAGI2_5, Q86UL8
Assay: holdup assay
Parameters: key: below the threshold = too weak to quantify, mostly under pKd 3.1 to 4
Details: plain residues with an end cap or a label only (N-terminal biotin on a linker: ado-ado)

Chain of MAGI2_5, Q86UL8 (Q86UL8 915-1017): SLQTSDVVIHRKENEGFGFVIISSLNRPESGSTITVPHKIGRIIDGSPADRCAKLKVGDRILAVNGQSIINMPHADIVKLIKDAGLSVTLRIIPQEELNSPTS

| pKd | Binder |
| --- | --- |
| below the threshold | B1 |
| below the threshold | B2 |
| 4.96 | B3 |
| below the threshold | B4 |

Biological target: MAGI2_6, Q86UL8
Assay: holdup assay
Parameters: key: below the threshold = too weak to quantify, mostly under pKd 3.1 to 4
Details: plain residues with an end cap or a label only (N-terminal biotin on a linker: ado-ado)

Chain of MAGI2_6, Q86UL8 (Q86UL8 1141-1229): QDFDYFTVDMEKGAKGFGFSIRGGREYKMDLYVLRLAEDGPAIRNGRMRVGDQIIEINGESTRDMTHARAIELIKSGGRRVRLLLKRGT

| pKd | Binder |
| --- | --- |
| below the threshold | B1 |
| below the threshold | B2 |
| 4.31 | B3 |
| below the threshold | B4 |

Biological target: MAST1, Q9Y2H9
Assay: holdup assay
Parameters: key: below the threshold = too weak to quantify, mostly under pKd 3.1 to 4
Details: plain residues with an end cap or a label only (N-terminal biotin on a linker: ado-ado)

Chain of MAST1, Q9Y2H9 (Q9Y2H9 962-1065): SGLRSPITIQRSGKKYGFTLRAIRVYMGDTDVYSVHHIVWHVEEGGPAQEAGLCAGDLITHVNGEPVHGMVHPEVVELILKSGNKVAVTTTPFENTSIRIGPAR

| pKd | Binder |
| --- | --- |
| below the threshold | B1 |
| 4.19 | B2 |
| 4.54 | B3 |
| 4.08 | B4 |

Biological target: PDLIM1, O00151
Assay: holdup assay
Parameters: key: below the threshold = too weak to quantify, mostly under pKd 3.1 to 4
Details: plain residues with an end cap or a label only (N-terminal biotin on a linker: ado-ado)

Chain of PDLIM1, O00151 (O00151 1-87): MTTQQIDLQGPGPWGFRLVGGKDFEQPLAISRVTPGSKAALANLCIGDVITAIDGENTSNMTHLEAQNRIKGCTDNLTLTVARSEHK

| pKd | Binder |
| --- | --- |
| below the threshold | B1 |
| below the threshold | B2 |
| 3.75 | B3 |
| below the threshold | B4 |

Biological target: T7, PDZD7_3, Q9H5P4
Assay: holdup assay
Parameters: key: below the threshold = too weak to quantify, mostly under pKd 3.1 to 4
Details: plain residues with an end cap or a label only (N-terminal biotin on a linker: ado-ado)

| pKd | Binder |
| --- | --- |
| below the threshold | B1 |
| 4.4 | B2 |
| 4.32 | B3 |
| below the threshold | B4 |

Biological target: SCRIB_2, Q14160
Assay: holdup assay
Parameters: key: below the threshold = too weak to quantify, mostly under pKd 3.1 to 4
Details: plain residues with an end cap or a label only (N-terminal biotin on a linker: ado-ado)

Chain of SCRIB_2, Q14160 (Q14160 857-960): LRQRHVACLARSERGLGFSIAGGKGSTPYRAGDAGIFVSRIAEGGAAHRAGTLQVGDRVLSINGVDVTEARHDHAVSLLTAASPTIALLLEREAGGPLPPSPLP

| pKd | Binder |
| --- | --- |
| below the threshold | B1 |
| below the threshold | B2 |
| 4.28 | B3 |
| below the threshold | B4 |

Biological target: T8, SHANK1, Q9Y566
Assay: holdup assay
Parameters: key: below the threshold = too weak to quantify, mostly under pKd 3.1 to 4
Details: plain residues with an end cap or a label only (N-terminal biotin on a linker: ado-ado)

| pKd | Binder |
| --- | --- |
| below the threshold | B1 |
| below the threshold | B2 |
| below the threshold | B3 |
| below the threshold | B4 |

Biological target: T9, SIPA1L2, Q9P2F8
Assay: holdup assay
Parameters: key: below the threshold = too weak to quantify, mostly under pKd 3.1 to 4
Details: plain residues with an end cap or a label only (N-terminal biotin on a linker: ado-ado)

| pKd | Binder |
| --- | --- |
| below the threshold | B1 |
| below the threshold | B2 |
| below the threshold | B3 |
| below the threshold | B4 |

Biological target: T10, SNTA1, Q13424
Assay: holdup assay
Parameters: key: below the threshold = too weak to quantify, mostly under pKd 3.1 to 4
Details: plain residues with an end cap or a label only (N-terminal biotin on a linker: ado-ado)

| pKd | Binder |
| --- | --- |
| below the threshold | B1 |
| 3.8 | B2 |
| 4.53 | B3 |
| below the threshold | B4 |

Biological target: T11, SNTB1, Q13884
Assay: holdup assay
Parameters: key: below the threshold = too weak to quantify, mostly under pKd 3.1 to 4
Details: plain residues with an end cap or a label only (N-terminal biotin on a linker: ado-ado)

| pKd | Binder |
| --- | --- |
| below the threshold | B1 |
| 4.03 | B2 |
| 4.64 | B3 |
| below the threshold | B4 |

Biological target: T12, SYNJ2BP, P57105
Assay: holdup assay
Parameters: key: below the threshold = too weak to quantify, mostly under pKd 3.1 to 4
Details: plain residues with an end cap or a label only (N-terminal biotin on a linker: ado-ado)

| pKd | Binder |
| --- | --- |
| below the threshold | B1 |
| 4.49 | B2 |
| 5.38 | B3 |
| below the threshold | B4 |

Biological target: T13, TJP3_3, O95049
Assay: holdup assay
Parameters: key: below the threshold = too weak to quantify, mostly under pKd 3.1 to 4
Details: plain residues with an end cap or a label only (N-terminal biotin on a linker: ado-ado)

| pKd | Binder |
| --- | --- |
| below the threshold | B1 |
| below the threshold | B2 |
| below the threshold | B3 |
| below the threshold | B4 |
